Common to all, as to assay: purified protein
Holding throughout (assay type): biochemical, Blastobotrys adeninivorans

Data set [1] concerns T1, NC(=O)c1ccc[n+]([C@@H]2O[C@H](COP(=O)(O)OP(=O)(O)OC[C@H]3O[C@@H](n4cnc5c(N)ncnc54)[C@H](O)[C@@H]3O)[C@@H](O)[C@H]2O)c1.
T1 construct: full length, N-terminal His6 tag (MHHHHHH then VPSPDI), expressed in A. adeninivorans G1212/YIC102-6H-AADH2, Ni-NTA purified; ORF 1068 bp, 356 residues printed; native 88 kDa, dimer
The settings on record: oxidation, 100 mM ethanol, 50 mM Tris-HCl pH 9.0, 30 °C, pH 9.0, varied: cofactor.

The next data set has as its system T2, CC=O.
T2 construct: full length, N-terminal His6 tag (MHHHHHH then VPSPDI), expressed in A. adeninivorans G1212/YIC102-6H-AADH2, Ni-NTA purified; ORF 1068 bp, 356 residues printed; native 88 kDa, dimer
The settings on record: reduction, 0.8 mM NADH, 50 mM sodium phosphate pH 7.5, 30 °C, pH 7.5.

The next data set deals with T3, CCCCO.
T3 construct: full length, N-terminal His6 tag (MHHHHHH then VPSPDI), expressed in A. adeninivorans G1212/YIC102-6H-AADH2, Ni-NTA purified; ORF 1068 bp, 356 residues printed; native 88 kDa, dimer
The settings on record: oxidation, 1 mM NAD+, 50 mM Tris-HCl pH 9.0, 30 °C, pH 9.0.

In data set [2] the test system is T4, NC(=O)C1=CN([C@@H]2O[C@H](COP(=O)(O)OP(=O)(O)OC[C@H]3O[C@@H](n4cnc5c(N)ncnc54)[C@H](O)[C@@H]3O)[C@@H](O)[C@H]2O)C=CC1.
T4 construct: full length, N-terminal His6 tag (MHHHHHH then VPSPDI), expressed in A. adeninivorans G1212/YIC102-6H-AADH2, Ni-NTA purified; ORF 1068 bp, 356 residues printed; native 88 kDa, dimer
The settings on record: reduction, 20 mM acetaldehyde, 50 mM sodium phosphate pH 7.5, 30 °C, pH 7.5, varied: cofactor.

For another data set, the system named is T5, CCCC=O.
T5 construct: full length, N-terminal His6 tag (MHHHHHH then VPSPDI), expressed in A. adeninivorans G1212/YIC102-6H-AADH2, Ni-NTA purified; ORF 1068 bp, 356 residues printed; native 88 kDa, dimer
The settings on record: reduction, 0.4 mM NADH, 50 mM sodium phosphate pH 7.5, 30 °C, pH 7.5.

This is an account of results in PMC5062937, “Aadh2p: an Arxula adeninivorans alcohol dehydrogenase involved in the first step of the 1-butanol degradation pathway” (Microbial Cell Factories, 2016).

By Km is commonly meant the concentration of substrate that gives half-maximal velocity. By kcat is commonly meant the maximal rate divided by the concentration of active sites. A word on the kcat/Km: it is the second-order rate constant that governs catalysis at low substrate concentration.

Turning to 6h-Aadh2p (Blastobotrys adeninivorans), the Km in data set [1] amounted to 500 µM; in the data set on CC=O, 26500 µM; with CCCCO it was 300 µM; in data set [2], 70 µM; with CCCC=O it was 500 µM. Further, the turnover number (kcat) in data set [1] is 2.2 s⁻¹; in the data set with CC=O, 15.2 s⁻¹; with CCCCO, 1310 s⁻¹; in data set [2] it was 14.7 s⁻¹; in the data set on CCCC=O, 11900 s⁻¹. For the same substance, the kcat/Km in data set [1] worked out at 4000 M⁻¹ s⁻¹; in the data set on CC=O, 600 M⁻¹ s⁻¹; with CCCCO it was 4.37e+06 M⁻¹ s⁻¹; in data set [2], 224000 M⁻¹ s⁻¹; with CCCC=O, 2.37e+07 M⁻¹ s⁻¹.
